Two molecules from US20080280298A1, “SATB1: A DETERMINANT OF MORPHOGENESIS AND TUMOR METASTASIS” (The Regents of the University of California, priority 2005, published 2008) can be followed below.

Data set [1] relates to SATB1. Briefly: SATB1 expression in MDA-MB-231 cells stably transfected with shRNA (Western blot, real-time RT-PCR). The data set is classed as cell-based, human. The following applies: for Expression of SATB1 was lowered by / SATB1 expression levels: MDA-MB-231 cells stably expressing the shRNA; for SATB1 expression levels: remaining expression; for SATB1 expression (in words): Western blot and quantitative RT-PCR, compared to parental MDA-MB-231 cells. On the procedure: It was then tested whether suppression of SATB1 level in the highly metastatic MDA-MB-231 cells would affect their aggressiveness. Short hairpin-interfering RNAs (shRNA) were successfully designed to target SATB1 expression and are identified herein as SEQ ID NOs: 4-7.
Two shRNAs were designed according to SATB1 sequence (GenBank Accession No. NM_002971, hereby incorporated by reference) using siRNA Target Finder (Ambion, Austin, Tex.); The sequences of each oligoduplex were targeted as follows: shRNA2423, 5′-GGATTTGGAAGAGAGTGTC-3′ (SEQ ID NO: 8), or shRNA2595, 5′-GTCCACCTTGTCTTCTCTC-3′ (SEQ ID NO: 9). The oligoduplexes were cloned into the plasmid pSUPER (Oligoengine, Seattle, Wash.). Prepared DNAs were transfected into the aggressive breast cancer cell line MDA-MB-231 by lipofectamine 2000 (Invitrogen) and successfully transfected cells were selected by puromycin at 2 μg/ml or G418 at 1.5 mg/ml from 24 h after transfection. Single MDA-MB-231 cell clone stably expressing either shRNA2423 or shRNA2595 is designated SATB1-shRNA1 MDA or SATB1-shRNA2 MDA cells, respectively. For overexpression of SATB1, full length of SATB1 including 3′UTR was cloned into retroviral vector pLXSN (Clontech, Mountain View, Calif.), and the viral solution was produced using PT67 package cell lines. Hs578T cells were infected with this viral solution, and stably infected cells were selected by G418 at 0.8 mg/ml for 5 days. The status of SATB1 level in manipulated MDA-MB-231 and Hs578T cells were examined by Western blot and real-time RT-PCR.
To evaluate the change of gene expression level depending on SATB1 status, semi-quantitative or real-time RT-PCR analysis of selected genes was performed (primer sequences are available upon request). Total RNA was extracted for cell lines using TR1 reagent (Sigma) followed by RNA clean-up with RNeasy Mini kit (Qiagen, Valencia, Calif.). For semi-quantitative RT-PCR, 5 μg of total RNA was reverse-transcribed into single stranded cDNA using Superscript II RNaseH-reverse transcriptase (Invitrogen) according to the protocol supplied with the kit. PCR cycle was controlled starting from 25 to 40 cycles upon gene-specific primers (20 ng of cDNA/reaction). Each cycle consisted of the following steps, using GeneAmp PCR system 9700 (PerkinElmer Inc., Fremont, Calif.); 94° C. for 30 s, 55° C. for 30 s, and 72° C. for 60 s. PCR products were separated on 1.5% agarose gels and visualized them by staining with ethidium bromide. SYBR Green PCR Core Reagents system was used for real-time monitoring of amplification on ABI 7500 Fast Real-time PCR System (Applied Biosystems, Foster City, Calif.). Absolute quantification method was employed to quantify target DNA fragments in triplicate with following cycling condition; 95° C. for 2 min, followed by 40 cycles of 95° C. for 3 s and 60° C. for 30 s.

Data set [2] concerns MDA-MB-231 cells. The data set is described as follows: Cell morphology and immunostaining in 3D Matrigel culture. The following applies: F-actin, β-catenin, integrin α6 immunostaining. The data set is classed as cell-based, human. On the procedure:
Changes in cell morphology. Referring now to FIG. 5, phase contrast micrographs of MDA-MB-231 control cells (control shRNA) or SATB1-shRNA1 MDA cells (SATB1-shRNA1) cultured on plastic (2D) and matrigel (3D) are shown. Major differences in cell morphology were observed when SATB1-shRNA1 MDA cells were grown in 3D culture, compared to control cells. The cell morphology was changed from stellate-like scattered (MDA-MB-231 with control shRNA) to spherical structures (MDA-MB-231 with SATB1-shRNA). […] In addition, MDA-MB-231 cells expressing SATB1-shRNA were able to basally deposit and organize a basement membrane on Matrigel, showing the characteristic acini formation, even though there was a minor difference in morphology as observed in MCF10A control cells.
Immunostaining of cells in culture. Total 1×10^4 cells mixed with Matrigel (5 mg/mL) were plated in 6-well plates pre-coated in a thick layer (1 mm) of Matrigel. Solidified Matrigel was overlaid with Growth medium (DMEM), and renewed at every 4 days. Colony formation and cell morphology was observed under light microscopy after 3 days to 14 days.
Cells were fixed in 4% paraformaldehyde, permeablized in 0.1% Triton X100, and blocked in 5% BSA. […] Staining was detected with secondary Alexa Fluor 488 and/or Alexa Fluor 594 Abs (Molecular Probes). […]

Data set [3] has as its system MDA-MB-231 cells. Briefly: Cell growth assay on plastic (2D) and Matrigel (3D). The data set is classed as cell-based, human. The following applies: 2D and 3D cultures up to 11 days, compared with parental cell line and control cells. From the text: Reduction of cell proliferation rate. We examined whether loss of SATB1 expression affects cancer cell proliferation by culturing SATB1-shRNA1 MDA and SATB1-shRNA2 MDA cells on plastic dish {two-dimensional (2D) culture} or on a reconstituted basement membrane derived from Engelbreth-Holm-Swarm Tumor (Matrigel™) {three-dimensional (3D) culture}.
Cell Growth Assay. […] Growth medium were renewed every 4 days. Cells were harvested by trypsin treatment, and counted at each time point using a cell counter (Beckman Coulter, Inc.; Fullerton, Calif.) and haematocytometer. […] Cells were treated with dispase (BD Biosciences, Inc.) for 2 h at 37° C. to be isolated from Matrigel, incubated with trypsin for further 5 min, and counted using a haematocytometer. […]

The subject of data set [4] is MDA-MB-231 cells. The data set is described as follows: Gene expression profiling (Affymetrix and Codelink microarrays). The data set is classed as cell-based, human. Particulars: >1.5-fold, under both plastic and Matrigel culture, versus control shRNA. From the text: We performed gene expression profiling on MDA-MB-231 cells expressing either control shRNA or SATB1-shRNA1 grown in culture. […] We also categorized those affected genes based on the gene ontology (GO)(URL: <http//www.geneontology.org/index.shtml>) annotation.

Data set [5] relates to MDA-MB-231 cells. Briefly: Tumor growth in mammary fat pads of athymic nude mice. Format: in vivo, mouse. Particulars: 6 mice, clone or pool of cells; controls formed large tumors within 39 days (6/6). From the text: We injected control and SATB1-shRNA1 cells into the fourth mammary fat pads of athymic nude mice and monitored tumor growth.
Data set [6] has as its system MDA-MB-231 cells. The data set is described as follows: Boyden chamber invasion assay. The data set is classed as cell-based, human. Particulars: remaining invasiveness. On the procedure: Boyden chamber assay. Boyden chamber chemo-migration assays were performed using a 24-well chemotaxis chamber (BD biosciences, Inc.). Breast cancer cells were seeded in triplicate at 50,000 cells/well onto the upper chambers with a 8 μm polycarbonate filter membrane coated with diluted Matrigel (10-25%) (BD biosciences, Inc.), and incubated at 37° C. in humidified 5% CO2 for 20 hrs. Conditioned media derived from NIH3T3 fibroblast cultures was used as a chemoattractant in the lower chambers. The migrated cells on underside of chambers were fixed in 10% (wt/vol) buffered-formalin and stained with crystal violet. After removal of cells remaining in the top chamber with a cotton swab, the numbers of cells that had migrated through the pores were assessed by light microscopy.

Data set [7] relates to MDA-MB-231 cells. The data set is described as follows: Experimental metastasis assay, tail vein injection into athymic mice, lung nodules. Format: in vivo, mouse. Particulars: 1×10^6 cells i.v., nine weeks, six mice. On the procedure:
The removal of SATB1 from MDA-MB-231 (aggressive) cells diminished metastatic activity: SATB1-shRNA1 MDA, SATB1-shRNA2 MDA, and control cells (1×10^6 cells) were injected intravenously into the lateral tail vein of 6-week-old athymic mice to evaluate metastasis of these cancer cell lines to lung. In mice, the metastasis of orthotopically grown tumors derived from human MDA-MB-231 cells is a relatively rare event. Therefore, by directly introducing cells into the circulation, we examined the requirement of SATB1 in cancer cell survival in circulation and extravasation to and growth in the lung. By nine weeks after tumor-cell injection, the lungs of mice injected with the control cells had formed numerous nodules, ranging in number from 125 to 160 per lung in all six mice analyzed (FIG. 11a,b). […]
1×10^6 cells MDA-MB-231 cells expressing control-shRNA, SATB1-shRNA1 or SATB1-shRNA2 MDA cells were injected into the tail veins of each mouse, and lungs were examined for metastatic nodules (arrows) 9 weeks later. […] In FIG. 11b, total numbers of metastatic lung nodules from individual mice were counted under a dissection microscope. For lungs of representative mice indicated, human SATB1 expression levels in human breast cancer cells colonized in lungs were analyzed by RT-PCR using human GAPDH as a loading control, with the use of human SATB1 and GAPDH specific oligomers. […]

B1: SATB1-shRNA1: shRNA against the SATB1 coding region, target GGATTTGGAAGAGAGTGTC (SEQ ID NO: 8); SEQ ID NOs: 4/5, expressed from pSUPER-puro (nucleic acid)
chain 1: GATCCCCGGATTTGGAAGAGAGTGTCTTCAAGAGAGACACTCTCTTCCAAATCCTTTTTGGAAA
chain 2: AGCTTTTCCAAAAAGGATTTGGAAGAGAGTGTCTCTCTTGAAGACACTCTCTTCCAAATCCGGG
modifications: target site or template, no part of the molecule
As to B1, in data set [1], the “Expression of SATB1 was lowered by” value came to 70%, the SATB1 expression levels is given as 30.4%±3.7 and the “SATB1 expression (in words)” value is given as “greatly reduced”. Further, the “cell morphology in 3D culture” value in data set [2] was “organized and polarized morphology, forming acinus-like structures”. Besides, in data set [3], the proliferation rates entry is listed as “significantly reduced”. Besides, in data set [4], the “downregulated genes upon SATB1 depletion (Tree 1)” value turned out to be 409 genes and the “upregulated genes upon SATB1 depletion (Tree 2)” value was 456 genes. The “tumor growth in mammary fat pads” value in data set [5] was “either no tumors or greatly reduced tumor growth”. In data set [6], the “invasiveness compared with host MDA-MB-231 cells” value came to 20%.

B2: SATB1-shRNA2: shRNA against the SATB1 3′UTR, target GTCCACCTTGTCTTCTCTC (SEQ ID NO: 9); SEQ ID NOs: 6/7, expressed from pSUPER-puro (nucleic acid)
chain 1: GATCCCCGTCCACCTTGTCTTCTCTCTTCAAGAGAGAGAGAAGACAAGGTGGACTTTTTGGAAA
chain 2: AGCTTTTCCAAAAAGTCCACCTTGTCTTCTCTCTCTCTTGAAGAGAGAAGACAAGGTGGACGGG
modifications: the letters are possibly those of the target site
For B2, in data set [1], the “Expression of SATB1 was lowered by” value is listed as 90%, the SATB1 expression levels is 12.5%±5.2 and the “SATB1 expression (in words)” value is “greatly reduced”. Moreover, in data set [2], the “cell morphology in 3D culture” value is “organized and polarized morphology, forming acinus-like structures”. Moreover, in data set [3], the proliferation rates entry is listed as “significantly reduced”. Moreover, the “lung metastases observed (in words)” value in data set [7] was “not observed in five out of six mice”. The “number of lung metastases (nodules per lung)” value in data set [7] (control cells 125 to 160 per lung) was “five”. The “invasiveness compared with host MDA-MB-231 cells” value in data set [6] is 20%.
